Assay results published in doi:10.1101/2022.06.12.495819 (bioRxiv, 2022).

Assays:
[1] = biological target: Tomato SlDXS1, truncated version lacking the N-terminal plastid targeting peptide, 6xHis-tagged (Solanum lycopersicum (tomato)); experiment: cross-linking
[2] = biological target: Tomato SlDXS1, truncated version lacking the N-terminal plastid targeting peptide, 6xHis-tagged (Solanum lycopersicum (tomato)); experiment: dynamic light scattering
cross-linking = biological target: the molecule itself; experiment: cross-linking
[3] = biological target: the molecule itself; experiment: SDS-PAGE with non-denaturing loading buffer and immunoblot

“Tomato SlDXS1, truncated version lacking the N-terminal plastid targeting peptide, 6xHis-tagged (enzyme)” showed a stoichiometry N [1] of 2 and a stoichiometry N [2] of 2.

B1: Escherichia coli deoxyxylulose 5-phosphate synthase (EcDXS), 6xHis-tagged, full length (enzyme)
chain: MSFDIAKYPTLALVDSTQELRLLPKESLPKLCDELRRYLLDSVSRSSGHFASGLGTVELTVALHYVYNTPFDQLIWDVGHQAYPHKILTGRRDKIGTIRQKGGLHPFPWRGESEYDVLSVGHSSTSISAGIGIAVAAEKEGKNRRTVCVIGDGAITAGMAFEAMNHAGDIRPDMLVILNDNEMSISENVGALNNHLAQLLSGKLYSSLREGGKKVFSGVPPIKELLKRTEEHIKGMVVPGTLFEELGFNYIGPVDGHDVLGLITTLKNMRDLKGPQFLHIMTKKGRGYEPAEKDPITFHAVPKFDPSSGCLPKSSGGLPSYSKIFGDWLCETAAKDNKLMAITPAMREGSGMVEFSRKFPDRYFDVAIAEQHAVTFAAGLAIGGYKPIVAIYSTFLQRAYDQVLHDVAIQKLPVLFAIDRAGIVGADGQTHQGAFDLSYLRCIPEMVIMTPSDENECRQMLYTGYHYNDGPSAVRYPRGNAVGVELTPLEKLPIGKGIVKRRGEKLAILNFGTLMPEAAKVAESLNATLVDMRFVKPLDEALILEMAASHEALVTVEENAIMGGAGSGVNEVLMAHRKPVPVLNIGLPDFFIPQGTQEEMRAELGLDAAGMEAKIKAWLA
With B1 the “stoichiometry N” value (cross-linking) was 2.

B2: Tomato SlDXS1, full-length protein with C-terminal myc tag (pGWB420-SlDXS1), expressed in N. benthamiana leaves (enzyme)
chain: SLSESGEYYTQRPPTPILDTVNYPIHMKNLSLKELKQLADELRSDTIFNVSKTGGHLGSSLGVVELTVALHYVFNAPQDRILWDVGHQSYPHKILTGRRDKMSTLRQTDGLAGFTKRSESEYDCFGTGHSSTTISAGLGMAVGRDLKGRNNNVIAVIGDGAMTAGQAYEAMNNAGYLDSDMIVILNDNRQVSLPTATLDGPVAPVGALSSALSRLQSNRPLRELREVAKGVTKQIGGPMHELAAKVDEYARGMISGSGSTLFEELGLYYIGPVDGHNIDDLIAILKEVRSTKTTGPVLIHVVTEKGRGYPYAERAADKYHGVAKFDPATGKQFKASAKTQSYTTYFAEALIAEAEADKDIVAIHAAMGGGTGMNLFHRRFPTRCFDVGIAEQHAVTFAAGLACEGIKPFCAIYSSFMQRAYDQVVHDVDLQKLPVRFAMDRAGLVGADGPTHCGAFDVTYMACLPNMVVMAPSDEAELFHMVATAAAIDDRPSCFRYPRGNGIGVELPAGNKGIPLEVGKGRILIEGERVALLGYGSAVQNCLDAAIVLESRGLQVTVADARFCKPLDHALIRSLAKSHEVLITVEEGSIGGFGSHVVQFMALDGLLDGKLKWRPIVLPDRYIDHGSPVDQLAEAGLTPSHIAATVFNILGQTREALEVMT
In the case of B2, the “stoichiometry N” value [3] is reported as 2.
